# B1: peptide HD2 (from tick evasin EVA4) / CCL4 (biotinylated, synthetic) (parent complex)
# chain 1: EEDDYTAYAPLTCYFT
# chain 2: APMGSDPPTACCFSYTARKLPRNFVVDYYETSSLCSQPAVVFQTKRSKQVCADPSESWVQEYVYDLELN
# Variants of: B1
row,Variant,enrichment
1,chain 1 EEDDSTAYAPLTCYFT [chain 1 Y5S],-5.86 log2 (difference from the parental peptide)
2,chain 1 EEDDFTAYAPLTCYFT [chain 1 Y5F],0.426 log2 (difference from the parental peptide)
3,chain 1 EEDDETAYAPLTCYFT [chain 1 Y5E],-2.05 log2 (difference from the parental peptide)
4,chain 1 EEDDPTAYAPLTCYFT [chain 1 Y5P],-6.3 log2 (difference from the parental peptide)
5,chain 1 EEDDRTAYAPLTCYFT [chain 1 Y5R],-5.62 log2 (difference from the parental peptide)
6,chain 1 EEDDTTAYAPLTCYFT [chain 1 Y5T],-4.65 log2 (difference from the parental peptide)
7,chain 1 EEDDCTAYAPLTCYFT [chain 1 Y5C],-8.73 log2 (difference from the parental peptide)
8,chain 1 EEDDVTAYAPLTCYFT [chain 1 Y5V],-5.67 log2 (difference from the parental peptide)
9,chain 1 EEDDYNAYAPLTCYFT [chain 1 T6N],1.16 log2 (difference from the parental peptide)
10,chain 1 EEDDYWAYAPLTCYFT [chain 1 T6W],0.361 log2 (difference from the parental peptide)
11,chain 1 EEDDYRAYAPLTCYFT [chain 1 T6R],-0.342 log2 (difference from the parental peptide)
12,chain 1 EEDDYQAYAPLTCYFT [chain 1 T6Q],0.872 log2 (difference from the parental peptide)
13,chain 1 EEDDYSAYAPLTCYFT [chain 1 T6S],2.87 log2 (difference from the parental peptide)
14,chain 1 EEDDYGAYAPLTCYFT [chain 1 T6G],2.91 log2 (difference from the parental peptide)
15,chain 1 EEDDYTAYTPLTCYFT [chain 1 A9T],-2.45 log2 (difference from the parental peptide)
16,chain 1 EEDDYTAYLPLTCYFT [chain 1 A9L],-6 log2 (difference from the parental peptide)
17,chain 1 EEDDYTAYPPLTCYFT [chain 1 A9P],-7.37 log2 (difference from the parental peptide)
18,chain 1 EEDDYTAYKPLTCYFT [chain 1 A9K],-3.61 log2 (difference from the parental peptide)
19,chain 1 EEDDYTAYEPLTCYFT [chain 1 A9E],0.657 log2 (difference from the parental peptide)
20,chain 1 EEDDYTAYIPLTCYFT [chain 1 A9I],-7.98 log2 (difference from the parental peptide)
21,chain 1 EEDDYTAYNPLTCYFT [chain 1 A9N],-4.06 log2 (difference from the parental peptide)
22,chain 1 EEDDYTAYHPLTCYFT [chain 1 A9H],-6.2 log2 (difference from the parental peptide)
23,chain 1 EEDDYTAYRPLTCYFT [chain 1 A9R],-1.96 log2 (difference from the parental peptide)

row,Variant,enrichment
1,chain 1 EEDDYTAYSPLTCYFT [chain 1 A9S],-0.615 log2 (difference from the parental peptide)
2,chain 1 EEDDYTAYWPLTCYFT [chain 1 A9W],-3.72 log2 (difference from the parental peptide)
3,chain 1 EEDDYTAYAPLYCYFT [chain 1 T12Y],2.43 log2 (difference from the parental peptide)
4,chain 1 EEDDYTAYAPLECYFT [chain 1 T12E],-1.15 log2 (difference from the parental peptide)
5,chain 1 EEDDYTAYAPLNCYFT [chain 1 T12N],1.46 log2 (difference from the parental peptide)
6,chain 1 EEDDYTAYAPLDCYFT [chain 1 T12D],-0.0833 log2 (difference from the parental peptide)
7,chain 1 EEDYYTAYAPLTCYFT [chain 1 D4Y],-0.805 log2 (difference from the parental peptide)
8,chain 1 EEDKYTAYAPLTCYFT [chain 1 D4K],-5.45 log2 (difference from the parental peptide)
9,chain 1 EEDAYTAYAPLTCYFT [chain 1 D4A],-3.33 log2 (difference from the parental peptide)
10,chain 1 EEDLYTAYAPLTCYFT [chain 1 D4L],-3.89 log2 (difference from the parental peptide)
11,chain 1 EEDVYTAYAPLTCYFT [chain 1 D4V],-4.25 log2 (difference from the parental peptide)
12,chain 1 EEDSYTAYAPLTCYFT [chain 1 D4S],-3.38 log2 (difference from the parental peptide)
13,chain 1 EEDPYTAYAPLTCYFT [chain 1 D4P],-1.94 log2 (difference from the parental peptide)
14,chain 1 EEDNYTAYAPLTCYFT [chain 1 D4N],-2.63 log2 (difference from the parental peptide)
15,chain 1 EEDDYTAYAPLTCYHT [chain 1 F15H],0.795 log2 (difference from the parental peptide)
16,chain 1 EEDDYTAYAPLTCYRT [chain 1 F15R],0.256 log2 (difference from the parental peptide)
17,chain 1 EEDDYTAYAPLTCYET [chain 1 F15E],-1.26 log2 (difference from the parental peptide)
18,chain 1 EEDDYTAYAPLTCYLT [chain 1 F15L],0.921 log2 (difference from the parental peptide)
19,chain 1 EEDDYTAYAPLTCYTT [chain 1 F15T],1.23 log2 (difference from the parental peptide)
20,chain 1 EEDDYTAYAPLTCYYT [chain 1 F15Y],0.0726 log2 (difference from the parental peptide)
21,chain 1 EEDDYTAYAPLTCYNT [chain 1 F15N],-0.875 log2 (difference from the parental peptide)
22,chain 1 EEDDYTAYAPLTCYQT [chain 1 F15Q],0.832 log2 (difference from the parental peptide)
23,chain 1 EEPDYTAYAPLTCYFT [chain 1 D3P],-2.56 log2 (difference from the parental peptide)

row,Variant,enrichment
1,chain 1 EEYDYTAYAPLTCYFT [chain 1 D3Y],-1.16 log2 (difference from the parental peptide)
2,chain 1 EEHDYTAYAPLTCYFT [chain 1 D3H],-1.73 log2 (difference from the parental peptide)
3,chain 1 EETDYTAYAPLTCYFT [chain 1 D3T],-2.72 log2 (difference from the parental peptide)
4,chain 1 EEDDYTALAPLTCYFT [chain 1 Y8L],-7.61 log2 (difference from the parental peptide)
5,chain 1 EEDDYTAFAPLTCYFT [chain 1 Y8F],0.697 log2 (difference from the parental peptide)
6,chain 1 EEDDYTATAPLTCYFT [chain 1 Y8T],-6.05 log2 (difference from the parental peptide)
7,chain 1 EEDDYTASAPLTCYFT [chain 1 Y8S],-2.96 log2 (difference from the parental peptide)
8,chain 1 EEDDYTAAAPLTCYFT [chain 1 Y8A],-1.67 log2 (difference from the parental peptide)
9,chain 1 EEDDYTAIAPLTCYFT [chain 1 Y8I],-7.37 log2 (difference from the parental peptide)
10,chain 1 EEDDYTAWAPLTCYFT [chain 1 Y8W],-0.806 log2 (difference from the parental peptide)
11,chain 1 EEDDYTAEAPLTCYFT [chain 1 Y8E],-5.75 log2 (difference from the parental peptide)
12,chain 1 EEDDYTAYAPLTCYFC [chain 1 T16C],-0.0497 log2 (difference from the parental peptide)
13,chain 1 EEDDYTAYAPLTCYFW [chain 1 T16W],-0.489 log2 (difference from the parental peptide)
14,chain 1 EEDDYTAYAPLTCYFM [chain 1 T16M],0.277 log2 (difference from the parental peptide)
15,chain 1 EEDDYTAYAPLTCYFP [chain 1 T16P],1.45 log2 (difference from the parental peptide)
16,chain 1 EEDDYTAYAPLTCYFA [chain 1 T16A],1.47 log2 (difference from the parental peptide)
17,chain 1 EEDDYTAYAPLTCYFR [chain 1 T16R],-0.298 log2 (difference from the parental peptide)
18,chain 1 EEDDYTAYAPLTCYFF [chain 1 T16F],-0.0684 log2 (difference from the parental peptide)
19,chain 1 EEDDYTAYAPLTCYFL [chain 1 T16L],0.489 log2 (difference from the parental peptide)
20,chain 1 EEDDYTAYAPLTCYFH [chain 1 T16H],0.117 log2 (difference from the parental peptide)
21,chain 1 EEDDYTAYAPLTCYFE [chain 1 T16E],0.827 log2 (difference from the parental peptide)
22,chain 1 EEDDYTAYADLTCYFT [chain 1 P10D],-2.89 log2 (difference from the parental peptide)
23,chain 1 EEDDYTAYATLTCYFT [chain 1 P10T],-7.43 log2 (difference from the parental peptide)

row,Variant,enrichment
1,chain 1 EEDDYTAYAQLTCYFT [chain 1 P10Q],-4.96 log2 (difference from the parental peptide)
2,chain 1 EEDDYTAYAGLTCYFT [chain 1 P10G],-6.62 log2 (difference from the parental peptide)
3,chain 1 EEDDYTMYAPLTCYFT [chain 1 A7M],2.06 log2 (difference from the parental peptide)
4,chain 1 EEDDYTKYAPLTCYFT [chain 1 A7K],1.68 log2 (difference from the parental peptide)
5,chain 1 EEDDYTLYAPLTCYFT [chain 1 A7L],-0.0909 log2 (difference from the parental peptide)
6,chain 1 EEDDYTTYAPLTCYFT [chain 1 A7T],-0.191 log2 (difference from the parental peptide)
7,chain 1 EEDDYTGYAPLTCYFT [chain 1 A7G],0.187 log2 (difference from the parental peptide)
8,chain 1 EEDDYTIYAPLTCYFT [chain 1 A7I],-0.497 log2 (difference from the parental peptide)
9,chain 1 EEDDYTPYAPLTCYFT [chain 1 A7P],1.22 log2 (difference from the parental peptide)
10,chain 1 EEDDYTVYAPLTCYFT [chain 1 A7V],-1.76 log2 (difference from the parental peptide)
11,chain 1 EEDDYTAYAPHTCYFT [chain 1 L11H],1.71 log2 (difference from the parental peptide)
12,chain 1 EEDDYTAYAPETCYFT [chain 1 L11E],-2.34 log2 (difference from the parental peptide)
13,chain 1 EEDDYTAYAPPTCYFT [chain 1 L11P],-7.67 log2 (difference from the parental peptide)
14,chain 1 EEDDYTAYAPNTCYFT [chain 1 L11N],-3.21 log2 (difference from the parental peptide)
15,chain 1 EEDDYTAYAPFTCYFT [chain 1 L11F],-0.923 log2 (difference from the parental peptide)
16,chain 1 EEDDYTAYAPGTCYFT [chain 1 L11G],-4.26 log2 (difference from the parental peptide)
17,chain 1 EEDDYTAYAPSTCYFT [chain 1 L11S],-0.188 log2 (difference from the parental peptide)
18,chain 1 AEDDYTAYAPLTCYFT [chain 1 E1A],-0.519 log2 (difference from the parental peptide)
19,chain 1 PEDDYTAYAPLTCYFT [chain 1 E1P],-1.59 log2 (difference from the parental peptide)
20,chain 1 QEDDYTAYAPLTCYFT [chain 1 E1Q],-0.262 log2 (difference from the parental peptide)
21,chain 1 YEDDYTAYAPLTCYFT [chain 1 E1Y],-1.6 log2 (difference from the parental peptide)
22,chain 1 EDDDYTAYAPLTCYFT [chain 1 E2D],1.08 log2 (difference from the parental peptide)
23,chain 1 ESDDYTAYAPLTCYFT [chain 1 E2S],-2.25 log2 (difference from the parental peptide)

row,Variant,enrichment
1,chain 1 EKDDYTAYAPLTCYFT [chain 1 E2K],-3.72 log2 (difference from the parental peptide)
2,chain 1 EADDYTAYAPLTCYFT [chain 1 E2A],-0.79 log2 (difference from the parental peptide)
3,chain 1 ETDDYTAYAPLTCYFT [chain 1 E2T],-2.75 log2 (difference from the parental peptide)
4,chain 1 ELDDYTAYAPLTCYFT [chain 1 E2L],-1.83 log2 (difference from the parental peptide)
5,chain 1 EEDDYTAYAPLTLYFT [chain 1 C13L],-6.3 log2 (difference from the parental peptide)
6,chain 1 EEDDYTAYAPLTMYFT [chain 1 C13M],-2.33 log2 (difference from the parental peptide)
7,chain 1 EEDDYTAYAPLTPYFT [chain 1 C13P],-9.17 log2 (difference from the parental peptide)
8,chain 1 EEDDYTAYAPLTKYFT [chain 1 C13K],-8.69 log2 (difference from the parental peptide)
9,chain 1 EEDDYTAYAPLTEYFT [chain 1 C13E],-9.5 log2 (difference from the parental peptide)
10,chain 1 EEDDYTAYAPLTYYFT [chain 1 C13Y],-5.99 log2 (difference from the parental peptide)
11,chain 1 EEDDYTAYAPLTTYFT [chain 1 C13T],-4.09 log2 (difference from the parental peptide)
12,chain 1 EEDDYTAYAPLTCSFT [chain 1 Y14S],-3.51 log2 (difference from the parental peptide)
13,chain 1 EEDDYTAYAPLTCAFT [chain 1 Y14A],-3.96 log2 (difference from the parental peptide)
14,chain 1 EEDDYTAYAPLTCEFT [chain 1 Y14E],-5.52 log2 (difference from the parental peptide)
15,chain 1 EEDDYTAYAPLTCGFT [chain 1 Y14G],-6.07 log2 (difference from the parental peptide)
16,chain 1 EEDDYTAYAPLTCDFT [chain 1 Y14D],-5.1 log2 (difference from the parental peptide)
17,chain 1 EEDDYTAYAPLTCPFT [chain 1 Y14P],-6.84 log2 (difference from the parental peptide)
18,chain 1 EEDDYTAYAPLTCRFT [chain 1 Y14R],-4.11 log2 (difference from the parental peptide)
19,chain 1 EEDDYTAYAPLTCNFT [chain 1 Y14N],-3.47 log2 (difference from the parental peptide)
20,chain 1 EEDDYTAYAPLTCQFT [chain 1 Y14Q],-2.97 log2 (difference from the parental peptide)

# — publication PMC11969024 (2025)
